Measurements: US20140056966A1, “CONJUGATE ANGIOSTATION OR ITS FRAGMENT, THE METHOD OF PRODUCING THE CONJUGATE AND USE THEREOF” (PROTGEN LTD., priority 2007, published 2014)
Read-outs that look alike come from different tables or passages of the source.

B1: K2: fragment of recombinant human plasminogen; angiostatin K2, SEQ ID NO:4 (protein, listed as Homo sapiens)
chain: CMHCSGENYDGKISKTMSGLECQAWDSQSPHAHGYIPSKFPNKNLKKNYCRNPDRELRPWCFTTDPNKRWELCDIPRC
B2: K3: fragment of recombinant human plasminogen; angiostatin K3, SEQ ID NO:5 (protein, listed as Homo sapiens)
chain: CLKGTGENYRGNVAVTVSGHTCQHWSAQTPHTHNRTPENFPCKNLDENYCRNPDGKRAPWCHTTNSQVRWEYCKIPSC
B3: K1-3: angiostatin fragment K1-3 (fragment of plasminogen), recombinant, sequence of SEQ ID NO.2, expressed in E. coli (protein, listed as Homo sapiens)
chain: MVYLSECKTGNGKNYRGTMSKTKNGITCQKWSSTSPHRPRFSPATHPSEGLEENYCRNPDNDPQGPWCYTTDPEKRYDYCDILECEEECMHCSGENYDGKISKTMSGLECQAWDSQSPHAHGYIPSKFPNKNLKKNYCRNPDRELRPWCFTTDPNKRWELCDIPRCTTPPPSSGPTYQCLKGTGENYRGNVAVTVSGHTCQHWSAQTPHTHNRTPENFPCKNLDENYCRNPDGKRAPWCHTTNSQVRWEYCKIPSCDSSP
B4: PEG-K1-3: K1-3 having the sequence of SEQ ID NO:2 modified with 20 kDa PEG at the N-terminal α-amino group (conjugate, listed as Homo sapiens)
chain: B3 chain
modifications: 20 kDa PEG at N-terminus
B5: K1: fragment of recombinant human plasminogen; angiostatin K1, SEQ ID NO:3 (protein, listed as Homo sapiens)
chain: CKTGNGKNYRGTMSKTKNGITCQKWSSTSPHRPRFSPATHPSEGLEENYCRNPDNDPQGPWCYTTDPEKRYDYCDILEC

How the values were obtained:
NCI-H226 NSCLC xenograft = NCI-H226 NSCLC xenograft model, tumor burden; format: in vivo, Balb/c nu/nu mice; conditions: for T/C ratio: PEG-K1-3 4.5 mg/kg i.v., Taxol 20 mg/kg i.v.; for tumor inhibition rate: tumor burden 21 days after treatment, vs control group, PEG-K1-3 4.5 mg/kg, Taxol 20 mg/kg
Description: (§1) Female Balb/c nu/nu mice aged 6-8 weeks of about 18-20 g weight (institute of laboratory animal sciences, CAMS) were used in this experiment. Mice were subcutaneously inoculated on the right side with NCI-H226 cells (human pancreatic cancer cell line, derived from ATCC, ATCC number CRL-5826). When the tumor volume reached about 80-125 mm^3, the animals were divide into 3 groups randomly (6 per group). […] The body weight and tumor volume of the animals were measured twice a week. Sacrifice the animals on day 28, collect the tumors and take photographs.

[1] = body weight of animals in the NCI-H226 xenograft model; conditions: 20 mg/kg; Day 11 and Day 25; ANOVA p<0.05
Description: as §1

[2] = system: bovine capillary endothelial cell (BCE); conditions: cited from earlier work; for inhibition of BCE proliferation: fragments of recombinant human plasminogen
[3] = system: H22 hepatocellular carcinoma; test: early-stage H22 hepatocellular carcinoma mice tumor model; format: in vivo, Balb/c mice; conditions: subcutaneous, 3 weeks, tumor weight day 22
Description: K1-3 used in this example is K1-3 having the sequence of SEQ ID NO.2. Experiments were performed to observe the in vive inhibitory activity of K1-3 with PEG coupled to its N-terminus on early-stage H22 tumor. Balb/c mice of about 20 g were used in the experiment (Beijing Vital River Laboratory Animal Co. Ltd.). Mice were inoculated at back with H22 cells, 1×10^6 cells per mouse. The mice were then randomly grouped after the tumor volume reaches 1 cm^3, 8 mice per group, including the negative control group (sodium acetate), the positive control group (K1-3, 4.5 mg/kg body weight, administered daily), three treatment groups (K1-3 with PEG coupled to its N-terminus, 1.5 mg/kg body weight, administered daily, or 4.5 mg/kg body weight, administered daily, twice per week, or weekly, respectively). The administration was performed by subcutaneous injection and lasted for 3 weeks. The mice were sacrificed on day 22, the weight of tumor was measured, and the efficacy was evaluated by tumor inhibition rate. […] Since the in vivo half life of K1-3 with PEG coupled to its N-terminus are longer than that of unmodified K1-3 of the same dosage, the biological activity K1-3 with PEG coupled to its N-terminus is higher than that of the unmodified K1-3 of the same concentration when administration intervals are extended.

[4] = system: human umbilical vein endothelial cell (HUVEC); format: cell-based; conditions: 16 hours
Description: The K1-3 used in this example has the sequence of SEQ ID NO.2. 2×10^5/ml HUVEC were inoculated in 12-well plates (Corning) and cultured in the M199 medium (Hyclone) containing 20% fetal bovine serum (Hyclone) to exponential phase. After starved for 12 hours, crossed wounds were created in each well. Suspending cells were washed away. Experimental groups were as follows: negative control (PBS), positive control (K1-3 at the concentration of 0.04, 0.4 and 4 μg/ml) and treatment group (K1-3 with PEG at the concentration of 0.04, 0.4 and 4 μg/ml). After culturing for 16 hours at 37° C., the amounts of migrated cells were detected. At the concentration of 0.04-4 μg/ml, the inhibitory effect of cell migration was improved with the increase of protein concentration.

B16 melanoma = test: late-stage B16 melanoma mice tumor model; format: in vivo, C57B/L mice; conditions: subcutaneous, tumor weight day 11
Description: K1-3 used in this example is K1-3 having the sequence of SEQ ID NO.2. Experiments were performed to observe the in vivo inhibitory activity of K1-3 with PEG coupled to its N-terminus on late-stage B16 tumor. C57B/L mice of about 20 g were used in the experiment (Beijing Vital River Laboratory Animal Co. Ltd.). Mice were inoculated at back with B16 cells (ATCC#CRL-6475, USA), 1×10^6 cells per mouse. The mice were then randomly grouped after the tumor volume reaches 1 cm^3, 8 mice per group, including the negative control group (sodium acetate), the positive control group (K1-3, 4.5 mg/kg body weight, administered daily), three treatment groups (K1-3 with PEG coupled to its N-terminus, 1.5 mg/kg body weight, administered daily, or 4.5 mg/kg body weight, administered daily, every 3 days, every 6 days, or every 9 days, respectively). Administration was performed by subcutaneous injection and lasted for 10 days. The mice were sacrificed on day 11, the weight of tumor was measured, and the efficacy was evaluated by tumor inhibition rate.

[5] = system: human umbilical vein endothelial cell (HUVEC); test: trans-well migration of HUVEC; format: cell-based; conditions: 8 hours
Description: The K1-3 used in this example has the sequence of SEQ ID NO.2. HUVECs (Protgen, Beijing) were cultured in the M199 medium (Hyclone) containing 20% fetal bovine serum (Hyclone) to exponential phase. After starved for 12 hours, cells were added into trans-well inserts (Millipore, USA) at the concentration of 10,000 cells per well for measurement of cell migration. Mediums for migration assay included M199 medium with 5% serum. For the treatment groups, K1-3 with or without modification were added to the cells at 0.004, 0.04, 0.4 and 4 μg/ml. After culturing for 8 hours at 37° C., the cells in the trans-well inserts were fixed with 1% glutaraldehyde (Beijing chemical plant, China). […] The migrated cell number was counted under microscope (Olympus). Cells in three different fields in one plate treatment were counted and then the inhibition rate was calculated. At the concentration of 0.04-4 μg/ml, the inhibitory effect of cell migration improves with the increase of protein concentration.

[6] = in vivo half-life of K1-3 with or without PEG modification in Wistar rat
Description: The K1-3 used in this example has the sequence of SEQ ID NO.2. The efficacy of tK1-3 with PEG coupled to its N-terminus was evaluated by measuring the in vivo half-life of K1-3 with or without PEG modification in Wistar rat (Vitalriver Experimental Animal Center), respectively. Two healthy Wistar rat (about 200 g) were injected intraveniously with K1-3 and K1-3 modified with PEG, respectively, at a dose of 4.5 mg/kg body weight. Blood samples were taken from eye sockets of the rats at 0, 5, 10, 30 minutes, 1, 2, 4, 8, 16, 24, 36, 48, 72, 96, 120 and 144 hours. Plasma was then collected and the concentration of K1-3 with or without PEG modification was measured by sandwich ELISA, respectively.

[7] = system: HeLa (human cervical cancer); test: proliferation of tumor cells (HeLa), MTT; format: cell-based; conditions: 48 hours; for concentration showing the highest anti-proliferation effect on tumor cells: among 0.4, 4, 40 and 150 μg/ml
Description: K1-3 used in this example is the K1-3 having the sequence of SEQ ID NO.2. Specifically, HeLa (ATCC#CCL-2, USA) were added into 96-well plates at 20,000 cells per well, then cultured in the DMEM medium (Hyclone) containing 10% serum to exponential phase. After starving for 12 hours, cells were treated with different concentrations of modified or unmodified K1-3 for measurement of cell proliferation. Experimental groups were as follows: negative control group (PBS), positive control groups (0.4, 4, 40, and 150 μg/ml K1-3), and treatment group (0.4, 4, 40, and 150 μg/ml K1-3 with PEG coupled to its N-terminus). After culturing for 48 hours at 37° C., the cells in the plates were treated with MTT for 4 h at 37° C. Then DMSO was added, and the absorption was measured at 570 nm by microplate spectrophotometer.

[8] = 4.5 mg/kg body weight daily, 10 days
[9] = Wistar rat, injected intravenously, 4.5 mg/kg body weight, plasma, sandwich ELISA

Molecule	T/C ratio (NCI-H226 NSCLC xenograft; Day 4) [%]	T/C ratio (NCI-H226 NSCLC xenograft; Day 11) [%]	T/C ratio (NCI-H226 NSCLC xenograft; Day 18) [%]	T/C ratio (NCI-H226 NSCLC xenograft; Day 25) [%]	tumor inhibition rate (NCI-H226 NSCLC xenograft) [%]	inhibition of BCE proliferation [2]	tumor inhibition rate ([3]; 4.5 mg/kg body weight daily) [%]	inhibition rate on cells migration (wound healing) ([4]; 0.04 μg/ml) [%]	inhibition rate on cells migration (wound healing) ([4]; 0.4 μg/ml) [%]	inhibition rate on cells migration (wound healing) ([4]; 4 μg/ml) [%]	tumor inhibition rate (B16 melanoma; [8]) [%]	inhibition rate on cells migration ([5]; 0.04 μg/ml) [%]	inhibition rate on cells migration ([5]; 0.4 μg/ml) [%]	inhibition rate on cells migration ([5]; 4 μg/ml) [%]	half-life [6, 9] [h]	concentration showing the highest anti-proliferation effect on tumor cells [7] [µg/mL]	other results
CC(=O)O[C@H]1C(=O)[C@@]2(C)[C@H]([C@H](OC(=O)c3ccccc3)[C@]3(O)C[C@H](OC(=O)[C@H](O)[C@@H](NC(=O)c4ccccc4)c4ccccc4)C(C)=C1C3(C)C)[C@]1(OC(C)=O)CO[C@@H]1C[C@@H]2O [Taxol, reference compound]	69	39	28	18	84.43	–	–	–	–	–	–	–	–	–	–	–	tumor burden compared with the control group (NCI-H226 NSCLC xenograft; 20 mg/kg i.v., Day 11, Day 15, Day 18): significantly difference; average body weight compared with the control group [1]: significantly lower
B1	–	–	–	–	–	effectively inhibit	–	–	–	–	–	–	–	–	–	–	–
B2	–	–	–	–	–	effectively inhibit	–	–	–	–	–	–	–	–	–	–	–
B3	–	–	–	–	–	effectively inhibit	51	0	20	25	45	43	68	76	12.2	40	inhibitory effect on cell proliferation compared with angiostatin K1-4 [2]: significantly stronger
B4	73	63	62	66	17.18	–	60	35	40	105	60	58	65	69	81.5	40	tumor inhibition rate ([3]; 1.5 mg/kg body weight daily): 54%; tumor inhibition rate ([3]; 4.5 mg/kg body weight weekly): 50%; tumor inhibition rate (B16 melanoma; 1.5 mg/kg body weight daily, 10 days): 28%; tumor inhibition rate (B16 melanoma; 4.5 mg/kg body weight every 3 days): 34%; tumor inhibition rate (B16 melanoma; 4.5 mg/kg body weight every 6 days): 25%; tumor inhibition rate (B16 melanoma; 4.5 mg/kg body weight every 9 days): 24%; tumor burden compared with the control group (NCI-H226 NSCLC xenograft; 4.5 mg/kg i.v., p<0.05): significantly decreased; half-life ([6]; summary statement, refers to example 4): 81.5 h; inhibition of the tumor cell proliferation compared with unmodified K1-3 ([7]; 0.4-150 μg/ml): more potent than unmodified K1-3
B5	–	–	–	–	–	effectively inhibit	–	–	–	–	–	–	–	–	–	–	–
